Experimental data reported in US20160223554A1, “METHODS FOR DIAGNOSIS, PROGNOSIS AND METHODS OF TREATMENT” (priority 2011, published 2016).

What was measured:
Format in all cases: cell-based, human
[1] = test system: AML bone marrow mononuclear cells (BMMC); experiment: SCNP of paired diagnosis and relapse AML BMMC and independent diagnostic set (Example 5); details: for modulator responsive cells in the diagnostic AML bone marrow samples: diagnosis samples of Patients 1 and 2, 15 minutes modulation; for cells in which both p-Akt and p-S6 were induced: SCF 20 ng/ml, 15 minutes
Excerpt: All AML bone marrow mononuclear cells (BMMC) were derived from the bone marrow (BM) of AML patients treated at MD Anderson Cancer Center (MDACC) between September 1999 and September 2006. Clinical data were de-identified in compliance with Health Insurance Portability and Accountability Act regulations. Patient/sample inclusion criteria required a diagnosis of French-American-British (FAB) classification of M0 through M7 AML (excluding M3) AML, collection prior to therapy initiation and at least 50% viability upon sample thaw. For the identification of chemoresistant signaling profiles, two longitudinally paired BMMC samples at diagnosis (collection prior to the initiation of induction chemotherapy) and first relapse, were examined. An independent test set comprised of 47 BMMC samples collected at diagnosis from AML patients with a disease response of CR after high dose cytarabine based chemotherapy was used to assess the ability of the identified signaling profiles to predict disease relapse. Healthy, unstimulated BMMC (n=2) were purchased from a commercial source (All Cells) to serve as a control. All samples underwent fractionation over Ficoll-Hypaque prior to cryopreservation with 90% fetal bovine serum and 10% dimethyl sulfoxide and storage in liquid nitrogen.
The SCNP assay measured response to growth factors and cytokines involved in hematopoietic progenitor or myeloid biology (SCF, FLT3L, G-CSF, IL-27), drug transporter (ABCG2, MRP-1) and chemokine receptors (CXCR4) associated with adverse disease prognosis in AML, and the c-Kit growth factor receptor for SCF. The SCF and FLT3L—mediated PI3K/Akt and MAPK pathway is important for maintaining the hematopoietic stem cell pool; G-CSF-mediated Jak/STAT pathway activation is important for neutrophilic differentiation of hematopoietic progenitor cells; interleukin (IL)-27 mediated Jak/STAT pathway activation is important in regulating proliferation and differentiation of hematopoietic stem cells; CXCR4 expression is associated with disease relapse and decreased survival; and drug transporter expression levels (i.e. ABCG2 and MRP-1) are known to be associated with adverse prognosis in AML. All together, approximately 20 signaling nodes were evaluated in each sample.
SCNP assays were performed as described previously. Cryopreserved samples were thawed at 37° C. and washed once in warm PBS containing 10% FBS (HyClone, Waltham, Mass., USA) and 2 mM EDTA. […] The cells were re-suspended in RPMI containing 1% FBS, aliquoted to 100,000 cells/condition and rested for 1-2 hours at 37° C. Cells were incubated for 15 minutes at 37° C. with each of the following signaling modulators: fins-like tyrosine kinase receptor-3 ligand (FLT3L, 50 ng/ml; eBiosciences, San Diego, Calif., USA); granulocyte colony-stimulating factor (G-CSF, 50 ng/ml; R&D Systems, Minneapolis, Minn., USA); interleukin-27 (IL-27, 50 ng/ml, R&D Systems); stem cell factor (SCF, 20 ng/ml, R&D Systems). After exposure to modulators, cells were fixed with a final concentration of 1.6% paraformaldehyde (Electron Microscopy Sciences, Hatfield, Pa., USA) for 10 minutes at 37° C. Cells were pelleted and then permeabilized with 100% ice-cold methanol (Sigma-Aldrich, St. Louis, Mo., USA) and stored at −80° C. overnight. Subsequently, cells were washed with FACS buffer containing phosphate buffered saline (PBS, Fisher Scientific, Waltham, Mass., USA), 0.5% bovine serum albumin (BSA, Ankeny, Iowa, USA), 0.05% NaN3 (Mallinckrodt, Hazelwood, Mo., USA), pelleted and stained with cocktails of fluorochrome-conjugated antibodies. As an exploratory effort, when sufficient number of cells were available, simultaneous measurement of c-Kit expression and SCF induced signaling was also performed. Antibodies were available from commercial vendors such as BD, Bechman Coulter, Invitrogen and R&D Systems.
Flow cytometry data was acquired on an LSR II and/or CANTO II flow cytometer using the FACS DIVA software (BD Biosciences, San Jose, Calif.). […]

AML PBMC = experiment: Kinase inhibitor Signaling Arm, SCNP (Example 13); details: range over AML PBMC samples (N=6); short modulation, 15 minutes
AML blasts = experiment: SCNP signaling and apoptosis nodes in AML BMMC (Example 4, Study No. 2)
[2] = Study No.2, patients age 60 and older
[3] = Study No.2, patients with De Novo AML
[4] = Study No.2, patients with Secondary AML
[5] = Fold metric, all patients, Study No. 2
[6] = Study No.2, patients less than 60 years old
[7] = TotalPhospho metric, all patients, Study No. 2

## SCF: stem cell factor, ligand of c-Kit
[1]
  modulator responsive cells in the diagnostic AML bone marrow samples: ~1%
[1]; relapse sample from Patient 1
  cells in which both p-Akt and p-S6 were induced: 3.2%
[1]; relapse sample from Patient 2
  cells in which both p-Akt and p-S6 were induced: 31.7%
AML PBMC
  percentage of growth factor responsive cells: 6%-49%
AML blasts; [2]
  Mean Value of CRs, p-S6 Fold: 0.14
  Mean Value of NRs, p-S6 Fold: 0.70
AML blasts; [3]
  Mean Value of CRs, p-Akt Fold: 0.52
  Mean Value of CRs, p-PLCy2 TotalPhospho: 1.29
  Mean Value of CRs, p-S6 Fold: 1.05
  Mean Value of NRs, p-Akt Fold: −0.20
  Mean Value of NRs, p-PLCy2 TotalPhospho: 1.96
  Mean Value of NRs, p-S6 Fold: 0.43
AML blasts; [4]
  Mean Value of CRs, p-S6 Fold: 0.21
  Mean Value of NRs, p-S6 Fold: 1.28

B1: FLT3L: fms-like tyrosine kinase receptor-3 ligand (protein, UniProt P49771 27-235, looked up)
Fms-related tyrosine kinase 3 …: TQDCSFQHSPISSDFAVKIRELSDYLLQDYPVTVASNLQDEELCGGLWRLVLAQRWMERLKTVAGSKMQGLLERVNTEIHFVTKCAFQPPPSCLRFVQTNISRLLQETSEQLVALKPWITRQNFSRCLELQCQPDSSTLPPPWSPRPLEATAPTAPQPPLLLLLLLPVGLLLLAAAWCLHWQRTRRRTPRPGEQVPPVPSPQDLLLVEH
[1]
  modulator responsive cells in the diagnostic AML bone marrow samples: ~1%
AML PBMC
  percentage of growth factor responsive cells: 3%-22%
AML blasts; [2]
  Mean Value of CRs, p-Akt Fold: 0.00
  Mean Value of CRs, p-Erk Fold: 0.01
  Mean Value of CRs, p-S6 Fold: −0.06
  Mean Value of NRs, p-Akt Fold: 0.36
  Mean Value of NRs, p-Erk Fold: 0.21
  Mean Value of NRs, p-S6 Fold: 0.67
AML blasts; [3]
  Mean Value of CRs, p-PLCy2 TotalPhospho: 1.26
  Mean Value of NRs, p-PLCy2 TotalPhospho: 1.95
AML blasts; [4]
  Mean Value of CRs, P-Erk Fold: 0.00
  Mean Value of CRs, p-Akt Fold: 0.19
  Mean Value of CRs, p-S6 Fold: 0.12
  Mean Value of NRs, P-Erk Fold: 0.32
  Mean Value of NRs, p-Akt Fold: 0.60
  Mean Value of NRs, p-S6 Fold: 1.02

B2: IL-27: interleukin-27, cytokine modulator (protein, UniProt Q8NEV9 29-243; Q14213 21-229, looked up)
Interleukin-27 subunit alpha: FPRPPGRPQLSLQELRREFTVSLHLARKLLSEVRGQAHRFAESHLPGVNLYLLPLGEQLPDVSLTFQAWRRLSDPERLCFISTTLQPFHALLGGLGTQGRWTNMERMQLWAMRLDLRDLQRHLRFQVLAAGFNLPEEEEEEEEEEEEERKGLLPGALGSALQGPAQVSWPQLLSTYRLLHSLELVLSRAVRELLLLSKAGHSVWPLGFPTLSPQP
Interleukin-27 subunit beta: RKGPPAALTLPRVQCRASRYPIAVDCSWTLPPAPNSTSPVSFIATYRLGMAARGHSWPCLQQTPTSTSCTITDVQLFSMAPYVLNVTAVHPWGSSSSFVPFITEHIIKPDPPEGVRLSPLAERQLQVQWEPPGSWPFPEIFSLKYWIRYKRQGAARFHRVGPIEATSFILRAVRPRARYYVQVAAQDLTDYGELSDWSLPATATMSLGK
[1]
  modulator responsive cells in the diagnostic AML bone marrow samples: no IL-27 responsive subpopulation was identified
AML blasts; [5]
  Mean Value of CRs, p-Stat3: 0.22
  Mean Value of NRs, p-Stat3: 0.58
AML blasts; [2]
  Mean Value of CRs, p-Stat3 Fold: −0.19
  Mean Value of NRs, p-Stat3 Fold: 0.48
AML blasts; [6]
  Mean Value of CRs, p-Stat1 TotalPhospho: 1.73
  Mean Value of CRs, p-Stat3 Fold: 0.29
  Mean Value of CRs, p-Stat3 TotalPhospho: 1.97
  Mean Value of NRs, p-Stat1 TotalPhospho: 3.12
  Mean Value of NRs, p-Stat3 Fold: 0.72
  Mean Value of NRs, p-Stat3 TotalPhospho: 3.06
AML blasts; [4]
  Mean Value of CRs, p-Stat1 Fold: 0.32
  Mean Value of CRs, p-Stat1 TotalPhospho: 1.50
  Mean Value of CRs, p-Stat3 Fold: −0.01
  Mean Value of CRs, p-Stat3 TotalPhospho: 1.61
  Mean Value of NRs, p-Stat1 Fold: 1.90
  Mean Value of NRs, p-Stat1 TotalPhospho: 3.19
  Mean Value of NRs, p-Stat3 Fold: 0.76
  Mean Value of NRs, p-Stat3 TotalPhospho: 2.60
AML blasts; [7]
  Mean Value of CRs, p-Stat1: 1.66
  Mean Value of CRs, p-Stat3: 1.88
  Mean Value of NRs, p-Stat1: 2.63
  Mean Value of NRs, p-Stat3: 2.43

B3: G-CSF: granulocyte colony-stimulating factor (protein, UniProt P09919 31-207, looked up)
Granulocyte …: TPLGPASSLPQSFLLKCLEQVRKIQGDGAALQEKLVSECATYKLCHPEELVLLGHSLGIPWAPLSSCPSQALQLAGCLSQLHSGLFLYQGLLQALEGISPELGPTLDTLQLDVADFATTIWQQMEELGMAPALQPTQGAMPAFASAFQRRAGGVLVASHLQSFLEVSYRVLRHLAQP
[1]
  modulator responsive cells in the diagnostic AML bone marrow samples: ~1%
AML PBMC
  percentage of growth factor responsive cells: 3%-56%
AML blasts; [4]
  Mean Value of CRs, p-Stat1 Fold: 0.00
  Mean Value of CRs, p-Stat3 Fold: 0.06
  Mean Value of CRs, p-Stat5 Fold: 0.08
  Mean Value of CRs, p-Stat5 TotalPhospho: 2.58
  Mean Value of NRs, p-Stat1 Fold: 0.36
  Mean Value of NRs, p-Stat3 Fold: 0.96
  Mean Value of NRs, p-Stat5 Fold: 1.07
  Mean Value of NRs, p-Stat5 TotalPhospho: 3.91
